Results on 83 variants are retold here after the RNAGym collection of RNA variant scans (doi:10.1021/acssynbio.7b00057).

B1: Pistol ribozyme (parent)
chain: GGGUCGUUGUUCCAUAAUCGCGUGGAUAUGGCACGCAAGUUUCUACCGGGCACCGUAAAUGUCCGACUGGAGCCGUUCGGGCGGCUAUAAACAGACCUCAGGCCCGAAGCGUGGCGGCACCUGCCGCCGGUGGUAAAAAAGAUCGGAAGAGCACACGUCU

In this series the parent is B1. The series can be described thus: aptazyme ON/OFF ratio, guanine; higher = stronger switching; co-transcriptional cleavage with and without guanine.
Consider U7A U8A G9U U10C U11C C12G, for which the “aptazyme ON/OFF ratio” value was 1.06.

Take U7A U8A G9U U10C U11C C12U: the “aptazyme ON/OFF ratio” value was determined as 1.02. With U7A U8A G9U U10A U11G C12U C13G, the “aptazyme ON/OFF ratio” value was 1.15. The figure for U7A U8A G9U U10A U11G C12U C13U is 1.27; for U7A U8A G9U U10A U11G C12U C13A it is 1.25; for U7A U8A U10C U11G C12U C13U it is 1.3. The figure for U7A U8A U10C U11G C12U C13G is 1.1; for U7A U8A U10C U11G C12U C13A it is 1.23; for U7A U8A G9U U10C U11C C13U it is 1.04. The value for U7A U8A G9U U10C U11C C13A was 1.04; that for U7A U8A G9U U10C U11C C13G was 1.04; that for U7A U8A G9U U11C C12A C13A was 1.12. U7A U8A G9U U11C C12A C13U: the “aptazyme ON/OFF ratio” value was 1.17. Turning to U7A U8A G9U U11C C12A C13G, the “aptazyme ON/OFF ratio” value was determined as 1.13. The figure for U7A U8A U10A U11C C12A C13U is 1.11; for U7A U8A U10A U11C C12A C13A it is 1.04; for U7A U8A U10A U11C C12A C13G it is 1.12. The value for U7A U8A U10C U11C C12U C13G was 1.15; that for U7A U8A U10C U11C C12U C13U was 1.05; that for U7A U8A U10C U11C C12U C13A was 1.04. The value for U7A U8A G9U U10C was 2.34. On to U7A U8A G9U U10G, for which the “aptazyme ON/OFF ratio” value is 1.61. Consider U7A U8A U10A U11A C12A C13G, for which the “aptazyme ON/OFF ratio” value worked out at 1.19. U7A U8A U10A U11A C12A C13A: the “aptazyme ON/OFF ratio” value stood at 1.12. Regarding U7A U8A U10A U11A C12A C13U, the “aptazyme ON/OFF ratio” value worked out at 1.25.

Take U7A U8A G9U U10C U11C C12U C13G: the “aptazyme ON/OFF ratio” value came out at 1.02.

On to U7A U8A G9U U10C U11C C12U C13A, for which the “aptazyme ON/OFF ratio” value was 1.02. The value for U7A U8A G9U U10C U11C C12U C13U was 1.08; that for U7A U8A G9U U11C C12G C13U was 1.29; that for U7A U8A G9U U11C C12G C13G was 1.04. The figure for U7A U8A G9U U11C C12G C13A is 1.18; for U7A U8A G9U U10G U11C it is 1.05; for U7A U8A G9U U10G U11A it is 1.03. The figure for U7A U8A G9U U10G U11G is 1.09; for U7A U8A U10C U11G C12G C13A it is 1.17; for U7A U8A U10C U11G C12G C13G it is 1.18. With U7A U8A U10C U11G C12G C13U, the “aptazyme ON/OFF ratio” value came to 1.19. The value for U7A U8A G9U U10A U11G was 1.38; that for U7A U8A G9U U10G C12U C13U was 1.51. The figure for U7A U8A G9U U10G C12U C13A is 1.17. The figure for U7A U8A G9U U10G C12U C13G is 1.26; for U7A U8A G9U U11A C12U C13U it is 1.28. For U7A U8A G9U U11A C12U C13G, the “aptazyme ON/OFF ratio” value came to 1.23.

With U7A U8A G9U U11A C12U C13A, the “aptazyme ON/OFF ratio” value came out at 1.04.

As for U7A U8A G9U U10C C12U C13G, the “aptazyme ON/OFF ratio” value was 1.15.

As to U7A U8A G9U U10C C12U C13A, the “aptazyme ON/OFF ratio” value turned out to be 1.19. The value for U7A U8A G9U U10C C12U C13U was 1.43; that for U7A U8A G9U U10C U11A C12G C13U was 1.16.

U7A U8A G9U U10C U11A C12G C13G: the “aptazyme ON/OFF ratio” value was 1.17. The value for U7A U8A G9U U10C U11A C12G C13A was 1.25; that for U7A U8A G9U U10C U11G C12A C13A was 1.14; that for U7A U8A G9U U10C U11G C12A C13U was 1.18.

Turning to U7A U8A G9U U10C U11G C12A C13G, the “aptazyme ON/OFF ratio” value was 1.11. The figure for U7A U8A U10C C12A C13U is 1.18; for U7A U8A U10C C12A C13A it is 1.13; for U7A U8A U10C C12A C13G it is 1.08. The value for U7A U8A U10C U11A C12G C13A was 1.12; that for U7A U8A U10C U11A C12G C13G was 1.24; that for U7A U8A U10C U11A C12G C13U was 1.12.

Take U7A U8A G9U U10C U11G C12G C13A: the “aptazyme ON/OFF ratio” value came out at 1.15.

U7A U8A G9U U10C U11G C12G C13G: the “aptazyme ON/OFF ratio” value was 1.21. The value for U7A U8A G9U U10C U11G C12G C13U was 1.12; that for U7A U8A G9U U10C U11G C12G was 1.15.

On to U7A U8A G9U U10C U11G C12U, for which the “aptazyme ON/OFF ratio” value came to 1.22. The value for U7A U8A G9U U10C U11G C12A was 1.04; that for U7A U8A U10G C12A was 1.33.

On to U7A U8A U10C U11A C13G, for which the “aptazyme ON/OFF ratio” value is 1.09. The value for U7A U8A U10C U11A C13A was 1.13; that for U7A U8A U10C U11A C13U was 1.05. The value for U7A U8A U10C C13G was 1.09; that for U7A U8A U10C C13A was 1.11; that for U7A U8A U10C C13U was 1.98.

Consider U7A U8A U10A U11A C12G C13U, for which the “aptazyme ON/OFF ratio” value was determined as 1.13. The figure for U7A U8A U10A U11A C12G C13G is 1.45; for U7A U8A U10A U11A C12G C13A it is 1.05; for U7A U8A U10A C12U C13A it is 1.28. The value for U7A U8A U10A C12U C13U was 1.2; that for U7A U8A U10A C12U C13G was 1.1; that for U7A U8A G9U U11G C12A C13U was 1.22. The value for U7A U8A G9U U11G C12A C13A was 1.29; that for U7A U8A G9U U11G C12A C13G was 1.27. Take U7A U8A U10C C12U C13G: the “aptazyme ON/OFF ratio” value stood at 1.07. The figure for U7A U8A U10C C12U C13U is 1.14.
